Consider 9 molecules from article PMC7367873, “Dissecting the sequence determinants for dephosphorylation by the catalytic subunits of phosphatases PP1 and PP2A” (Nature Communications, 2020).

B1: OASL (protein, UniProt Q15646 2-514, looked up)
2'-5'-oligoadenylate …: ALMQELYSTPASRLDSFVAQWLQPHREWKEEVLDAVRTVEEFLRQEHFQGKRGLDQDVRVLKVVKVGSFGNGTVLRSTREVELVAFLSCFHSFQEAAKHHKDVLRLIWKTMWQSQDLLDLGLEDLRMEQRVPDALVFTIQTRGTAEPITVTIVPAYRALGPSLPNSQPPPEVYVSLIKACGGPGNFCPSFSELQRNFVKHRPTKLKSLLRLVKHWYQQYVKARSPRANLPPLYALELLTIYAWEMGTEEDENFMLDEGFTTVMDLLLEYEVICIYWTKYYTLHNAIIEDCVRKQLKKERPIILDPADPTLNVAEGYRWDIVAQRASQCLKQDCCYDNRENPISSWNVKRARDIHLTVEQRGYPDFNLIVNPYEPIRKVKEKIRRTRGYSGLQRLSFQVPGSERQLLSSRCSLAKYGIFSHTHIYLLETIPSEIQVFVKNPDGGSYAYAINPNSFILGLKQQIEDQQGLPKKQQQLEFQGQVLQDWLGLGIYGIQDSDTLILSKKKGEALFPAS
B2: SLC25A5 (protein, UniProt P05141 1-298, looked up)
ADP/ATP translocase 2: MTDAAVSFAKDFLAGGVAAAISKTAVAPIERVKLLLQVQHASKQITADKQYKGIIDCVVRIPKEQGVLSFWRGNLANVIRYFPTQALNFAFKDKYKQIFLGGVDKRTQFWLYFAGNLASGGAAGATSLCFVYPLDFARTRLAADVGKAGAEREFRGLGDCLVKIYKSDGIKGLYQGFNVSVQGIIIYRAAYFGIYDTAKGMLPDPKNTHIVISWMIAQTVTAVAGLTSYPFDTVRRRMMMQSGRKGTDIMYTGTLDCWRKIARDEGGKAFFKGAWSNVLRGMGGAFVLVLYDEIKKYT
B3: DDX5 (protein, UniProt P17844 1-614, looked up)
Probable ATP-dependent RNA …: MSGYSSDRDRGRDRGFGAPRFGGSRAGPLSGKKFGNPGEKLVKKKWNLDELPKFEKNFYQEHPDLARRTAQEVETYRRSKEITVRGHNCPKPVLNFYEANFPANVMDVIARQNFTEPTAIQAQGWPVALSGLDMVGVAQTGSGKTLSYLLPAIVHINHQPFLERGDGPICLVLAPTRELAQQVQQVAAEYCRACRLKSTCIYGGAPKGPQIRDLERGVEICIATPGRLIDFLECGKTNLRRTTYLVLDEADRMLDMGFEPQIRKIVDQIRPDRQTLMWSATWPKEVRQLAEDFLKDYIHINIGALELSANHNILQIVDVCHDVEKDEKLIRLMEEIMSEKENKTIVFVETKRRCDELTRKMRRDGWPAMGIHGDKSQQERDWVLNEFKHGKAPILIATDVASRGLDVEDVKFVINYDYPNSSEDYIHRIGRTARSTKTGTAYTFFTPNNIKQVSDLISVLREANQAINPKLLQLVEDRGSGRSRGRGGMKDDRRDRYSAGKRGGFNTFRDRENYDRGYSSLLKRDFGAKTQNGVYSAANYTNGSFGSNFVSAGIQTSFRTGNPTGTYQNGYDSTQQYGSNVPNMHNGMNQQAYAYPATAAAPMIGYPMPTGYSQ
B4: C14orf166 (protein, UniProt Q9Y224 1-244, looked up)
RNA transcription, …: MFRRKLTALDYHNPAGFNCKDETEFRNFIVWLEDQKIRHYKIEDRGNLRNIHSSDWPKFFEKYLRDVNCPFKIQDRQEAIDWLLGLAVRLEYGDNAEKYKDLVPDNSKTADNATKNAEPLINLDVNNPDFKAGVMALANLLQIQRHDDYLVMLKAIRILVQERLTQDAVAKANQTKEGLPVALDKHILGFDTGDAVLNEAAQILRLLHIEELRELQTKINEAIVAVQAIIADPKTDHRLGKVGR
B5: STT3A (protein, UniProt P46977 1-705, looked up)
Dolichyl-diphosphooligosacchar …: MTKFGFLRLSYEKQDTLLKLLILSMAAVLSFSTRLFAVLRFESVIHEFDPYFNYRTTRFLAEEGFYKFHNWFDDRAWYPLGRIIGGTIYPGLMITSAAIYHVLHFFHITIDIRNVCVFLAPLFSSFTTIVTYHLTKELKDAGAGLLAAAMIAVVPGYISRSVAGSYDNEGIAIFCMLLTYYMWIKAVKTGSICWAAKCALAYFYMVSSWGGYVFLINLIPLHVLVLMLTGRFSHRIYVAYCTVYCLGTILSMQISFVGFQPVLSSEHMAAFGVFGLCQIHAFVDYLRSKLNPQQFEVLFRSVISLVGFVLLTVGALLMLTGKISPWTGRFYSLLDPSYAKNNIPIIASVSEHQPTTWSSYYFDLQLLVFMFPVGLYYCFSNLSDARIFIIMYGVTSMYFSAVMVRLMLVLAPVMCILSGIGVSQVLSTYMKNLDISRPDKKSKKQQDSTYPIKNEVASGMILVMAFFLITYTFHSTWVTSEAYSSPSIVLSARGGDGSRIIFDDFREAYYWLRHNTPEDAKVMSWWDYGYQITAMANRTILVDNNTWNNTHISRVGQAMASTEEKAYEIMRELDVSYVLVIFGGLTGYSSDDINKFLWMVRIGGSTDTGKHIKENDYYTPTGEFRVDREGSPVLLNCLMYKMCYYRFGQVYTEAKRPPGFDRVRNAEIGNKDFELDVLEEAYTTEHWLVRIYKVKDLDNRGLSRT
B6: PKP2 (protein, UniProt Q99959 1-881, looked up)
Plakophilin-2: MAAPGAPAEYGYIRTVLGQQILGQLDSSSLALPSEAKLKLAGSSGRGGQTVKSLRIQEQVQQTLARKGRSSVGNGNLHRTSSVPEYVYNLHLVENDFVGGRSPVPKTYDMLKAGTTATYEGRWGRGTAQYSSQKSVEERSLRHPLRRLEISPDSSPERAHYTHSDYQYSQRSQAGHTLHHQESRRAALLVPPRYARSEIVGVSRAGTTSRQRHFDTYHRQYQHGSVSDTVFDSIPANPALLTYPRPGTSRSMGNLLEKENYLTAGLTVGQVRPLVPLQPVTQNRASRSSWHQSSFHSTRTLREAGPSVAVDSSGRRAHLTVGQAAAGGSGNLLTERSTFTDSQLGNADMEMTLERAVSMLEADHMLPSRISAAATFIQHECFQKSEARKRVNQLRGILKLLQLLKVQNEDVQRAVCGALRNLVFEDNDNKLEVAELNGVPRLLQVLKQTRDLETKKQITDHTVNLRSRNGWPGAVAHACNPSTLGGQGGRITRSGVRDQPDQHGLLWNLSSNDKLKNLMITEALLTLTENIIIPFSGWPEGDYPKANGLLDFDIFYNVTGCLRNMSSAGADGRKAMRRCDGLIDSLVHYVRGTIADYQPDDKATENCVCILHNLSYQLEAELPEKYSQNIYIQNRNIQTDNNKSIGCFGSRSRKVKEQYQDVPMPEEKSNPKGVEWLWHSIVIRMYLSLIAKSVRNYTQEASLGALQNLTAGSGPMPTSVAQTVVQKESGLQHTRKMLHVGDPSVKKTAISLLRNLSRNLSLQNEIAKETLPDLVSIIPDTVPSTDLLIETTASACYTLNNIIQNSYQNARDLLNTGGIQKIMAISAGDAYASNKASKAASVLLYSLWAHTELHHAYKKAQFKKTDFVNSRTAKAYHSLKD
B7: RBM39 (protein, UniProt Q14498 2-530, looked up)
RNA-binding protein 39: ADDIDIEAMLEAPYKKDENKLSSANGHEERSKKRKKSKSRSRSHERKRSKSKERKRSRDRERKKSKSRERKRSRSKERRRSRSRSRDRRFRGRYRSPYSGPKFNSAIRGKIGLPHSIKLSRRRSRSKSPFRKDKSPVREPIDNLTPEERDARTVFCMQLAARIRPRDLEEFFSTVGKVRDVRMISDRNSRRSKGIAYVEFVDVSSVPLAIGLTGQRVLGVPIIVQASQAEKNRAAAMANNLQKGSAGPMRLYVGSLHFNITEDMLRGIFEPFGRIESIQLMMDSETGRSKGYGFITFSDSECAKKALEQLNGFELAGRPMKVGHVTERTDASSASSFLDSDELERTGIDLGTTGRLQLMARLAEGTGLQIPPAAQQALQMSGSLAFGAVAEFSFVIDLQTRLSQQTEASALAAAASVQPLATQCFQLSNMFNPQTEEEVGWDTEIKDDVIEECNKHGGVIHIYVDKNSAQGNVYVKCPSIAAAIAAVNALHGRWFAGKMITAAYVPLPTYHNLFPDSMTATQLLVPSRR
B8: ATP5C1 (protein, UniProt P36542 26-298, looked up)
ATP synthase F(1) complex …: ATLKDITRRLKSIKNIQKITKSMKMVAAAKYARAERELKPARIYGLGSLALYEKADIKGPEDKKKHLLIGVSSDRGLCGAIHSSIAKQMKSEVATLTAAGKEVMLVGIGDKIRGILYRTHSDQFLVAFKEVGRKPPTFGDASVIALELLNSGYEFDEGSIIFNKFRSVISYKTEEKPIFSLNTVASADSMSIYDDIDADVLQNYQEYNLANIIYYSLKESTTSEQSARMTAMDNASKNASEMIDKLTLTFNRTRQAVITKELIEIISGAAALD
B9: FUBP3 (protein, UniProt Q96I24 2-572, looked up)
Far upstream element-binding …: AELVQGQSAPVGMKAEGFVDALHRVRQIAAKIDSIPHLNNSTPLVDPSVYGYGVQKRPLDDGVGNQLGALVHQRTVITEEFKVPDKMVGFIIGRGGEQISRIQAESGCKIQIASESSGIPERPCVLTGTPESIEQAKRLLGQIVDRCRNGPGFHNDIDSNSTIQEILIPASKVGLVIGRGGETIKQLQERTGVKMVMIQDGPLPTGADKPLRITGDAFKVQQAREMVLEIIREKDQADFRGVRGDFNSRMGGGSIEVSVPRFAVGIVIGRNGEMIKKIQNDAGVRIQFKPDDGISPERAAQVMGPPDRCQHAAHIISELILTAQERDGFGGLAAARGRGRGRGDWSVGAPGGVQEITYTVPADKCGLVIGKGGENIKSINQQSGAHVELQRNPPPNSDPNLRRFTIRGVPQQIEVARQLIDEKVGGTNLGAPGAFGQSPFSQPPAPPHQNTFPPRSSGCFPNMAAKVNGNPHSTPVSGPPAFLTQGWGSTYQAWQQPTQQVPSQQSQPQSSQPNYSKAWEDYYKKQSHAASAAPQASSPPDYTMAWAEYYRQQVAFYGQTLGQAQAHSQEQ

In the first experiment the test system is GFP-14-3-3β. Briefly: GFP-14-3-3β co-IP with LC-MS/MS, untreated GFP-14-3-3β versus GFP control (14-3-3 interactome). It counts as binding, human. The conditions noted are these: log2 difference; pairwise comparison untreated vs GFP, label-free quantification, 3 replicates each.
In the case of B1, the “Difference (log2), untreated vs GFP” value is reported as -1.1672.

Still in this experiment, the particulars now being: untreated vs GFP; LFQ intensities; 3 replicates each.
On to B2, for which the “Difference (log2), untreated vs GFP” value came to 0.2489 log2.

For the molecule B3, the “Difference (log2), untreated vs GFP” value was 0.1802 log2.

As to B4, the “Difference (log2), untreated vs GFP” value is reported as 1.488 log2.

B5: the “Difference (log2), untreated vs GFP” value is given as 0.4915 log2.

Take B6: the “Difference (log2), untreated vs GFP” value is on record as 1.704 log2.

In the case of B7, the “Difference (log2), untreated vs GFP” value amounted to 0.5608 log2.

Take B8: the “Difference (log2), untreated vs GFP” value was 1.174 log2.

B9: the “Difference (log2), untreated vs GFP” value was determined as 0.3039 log2.

For a further experiment, the system named is GFP-14-3-3β and its binding proteins. The experiment is described as follows: GFP-14-3-3β co-IP with LC-MS/MS label-free quantification, untreated versus PP1c-treated. More on the design: species or system human. The conditions noted are these: PP1 vs untreated; LFQ intensities; 3 replicates each.
For the molecule B2, the “Difference (log2), PP1 vs untreated” value is 0.4677 log2.

Consider B3, for which the “Difference (log2), PP1 vs untreated” value was 0.5082 log2.

For B4, the “Difference (log2), PP1 vs untreated” value is 0.4707 log2.

Consider B5, for which the “Difference (log2), PP1 vs untreated” value was determined as 0.5123 log2.

Consider B6, for which the “Difference (log2), PP1 vs untreated” value worked out at 0.4916 log2.

In the case of B7, the “Difference (log2), PP1 vs untreated” value is 0.4791 log2.

In the case of B8, the “Difference (log2), PP1 vs untreated” value is reported as 0.4773 log2.

Turning to B9, the “Difference (log2), PP1 vs untreated” value was determined as 0.5248 log2.

The same experiment, now with this note: log2 difference; pairwise comparison PP1 vs untreated, label-free quantification, 3 replicates each.
On to B1, for which the “Difference (log2), PP1 vs untreated” value is 2.113.
